IntAct's records for PubMed 37100772

B1: Nucleoprotein (Zaire ebolavirus (strain Mayinga-76)), P18272 (parent)
chain: MDSRPQKIWMAPSLTESDMDYHKILTAGLSVQQGIVRQRVIPVYQVNNLEEICQLIIQAFEAGVDFQESADSFLLMLCLHHAYQGDYKLFLESGAVKYLEGHGFRFEVKKRDGVKRLEELLPAVSSGKNIKRTLAAMPEEETTEANAGQFLSFASLFLPKLVVGEKACLEKVQRQIQVHAEQGLIQYPTAWQSVGHMMVIFRLMRTNFLIKFLLIHQGMHMVAGHDANDAVISNSVAQARFSGLLIVKTVLDHILQKTERGVRLHPLARTAKVKNEVNSFKAALSSLAKHGEYAPFARLLNLSGVNNLEHGLFPQLSAIALGVATAHGSTLAGVNVGEQYQQLREAATEAEKQLQQYAESRELDHLGLDDQEKKILMNFHQKKNEISFQQTNAMVTLRKERLAKLTEAITAASLPKTSGHYDDDDDIPFPGPINDDDNPGHQDDDPTDSQDTTIPDVVVDPDDGSYGEYQSYSENGMNAPDDLVLFDLDEDDEDTKPVPNRSTKGGQQKNSQKGQHIEGRQTQSRPIQNVPGPHRTIHHASAPLTDNDRRNEPSGSTSPRMLTPINEEADPLDDADDETSSLPPLESDDEEQDRDGTSNRTPTVAPPAPVYRDHSEKKELPQDEQQDQDHTQEARNQDSDNTQSEHSFEEMYRHILRSQGPFDAVLYYHMMKDEPVVFSTSDGKEYTYPDSLEEEYPPWLTEKEAMNEENRFVTLDGQQFYWPVMNHKNKFMAILQHHQ
B2: Nucleoprotein (Zaire ebolavirus (strain Mayinga-76)), P18272 (parent)
chain: B1 chain
partner: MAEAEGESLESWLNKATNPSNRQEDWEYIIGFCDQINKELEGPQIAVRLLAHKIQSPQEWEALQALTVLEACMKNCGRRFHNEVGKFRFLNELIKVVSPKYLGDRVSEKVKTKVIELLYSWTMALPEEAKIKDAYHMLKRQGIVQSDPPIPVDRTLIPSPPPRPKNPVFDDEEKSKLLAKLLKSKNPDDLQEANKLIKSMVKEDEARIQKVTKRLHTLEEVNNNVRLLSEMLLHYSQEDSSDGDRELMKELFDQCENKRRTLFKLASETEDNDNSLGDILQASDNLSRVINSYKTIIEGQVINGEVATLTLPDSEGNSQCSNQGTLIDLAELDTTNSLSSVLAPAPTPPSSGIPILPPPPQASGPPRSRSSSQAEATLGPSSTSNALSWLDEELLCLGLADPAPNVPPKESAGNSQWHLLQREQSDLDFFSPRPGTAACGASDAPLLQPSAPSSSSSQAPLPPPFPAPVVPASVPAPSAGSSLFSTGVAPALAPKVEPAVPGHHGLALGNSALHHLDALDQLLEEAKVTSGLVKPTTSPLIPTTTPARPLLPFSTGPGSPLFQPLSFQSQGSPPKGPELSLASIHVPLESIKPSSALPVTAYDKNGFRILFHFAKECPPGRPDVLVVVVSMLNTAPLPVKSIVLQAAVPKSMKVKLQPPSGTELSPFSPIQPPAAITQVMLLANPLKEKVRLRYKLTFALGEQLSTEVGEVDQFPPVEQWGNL

Variants of: B1
Conditions: with ap2m1_human AP2M1, Q96CW1
ap2m1_human AP2M1, Q96CW1, sequence (Q96CW1 whole entry): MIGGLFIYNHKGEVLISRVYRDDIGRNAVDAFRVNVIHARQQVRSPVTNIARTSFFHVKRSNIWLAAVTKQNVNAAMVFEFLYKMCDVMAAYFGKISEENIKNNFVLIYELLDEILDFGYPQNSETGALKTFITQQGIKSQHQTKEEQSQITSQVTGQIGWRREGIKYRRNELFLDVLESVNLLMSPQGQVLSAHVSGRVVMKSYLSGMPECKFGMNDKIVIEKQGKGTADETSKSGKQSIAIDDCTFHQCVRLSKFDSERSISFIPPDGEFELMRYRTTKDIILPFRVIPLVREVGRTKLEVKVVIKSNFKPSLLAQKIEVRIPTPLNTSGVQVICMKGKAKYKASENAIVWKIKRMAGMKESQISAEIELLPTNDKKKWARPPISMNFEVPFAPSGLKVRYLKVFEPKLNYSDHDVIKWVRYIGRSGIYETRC

Row | Variant | effect of a mutation on the interaction
1 | Y340A;L343A | with no effect

Variants of: B2
Conditions: with gga3_human GGA3, Q9NZ52

Row | Variant | effect of a mutation on the interaction
2 | Y469A | disrupting interaction strength
